Measurements from patent CN111393528A (UNIV CHINA PHARMA, dated 2020).

Molecular target: T1, FRα重组蛋白 (叶酸受体α, folate receptor α recombinant protein) (UniProt P15328 25-233, limits assumed)
T1 construct: Recombinant protein used for panning and ELISA (coated) and, after biotinylation (biotin:protein 20:1), on streptavidin sensors for BLI
Test: BLI (ForteBio Octet), biotinylated FRα on streptavidin sensor, scFv in solution

T1 sequence (P15328 25-233 limits assumed): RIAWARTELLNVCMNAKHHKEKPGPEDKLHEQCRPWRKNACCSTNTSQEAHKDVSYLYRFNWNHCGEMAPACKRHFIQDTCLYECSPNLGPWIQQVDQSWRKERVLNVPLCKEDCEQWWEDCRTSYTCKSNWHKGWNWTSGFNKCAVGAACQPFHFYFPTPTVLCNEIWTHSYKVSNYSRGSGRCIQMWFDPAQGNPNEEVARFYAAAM

B1: FR ScFv (靶向叶酸受体α的单链抗体) (scFv)
scFv: QAQLLESGGGLVQPGGSLRLSCAASGFTFSSYAMSWVRQAPGKGLEWVSAISGSGGSTYYADSVEGRFTISRDNSKNTLYLQMNSLRAEDTAVYYCARRAVGRGWRFWGQGTMVTVSSGGGGSGGGGSGGGGSDIVLTQSPSASGTPGQRVTISCSGSSSNIGSNYVYWYQQLPGTAPKLLIYRNNQRPSGVSDRFSGSKSGTSASLAISGLRSEDEADYYCAAWDDSLSARVFGGGTKVDIKR
notes: Soluble scFv expressed in E. coli BL21 from pET22b (BamH I/Hind III), purified on a nickel column; about 28.32 kDa; Vector-derived residues at the N-terminus (pelB leader, cloning site) are not described; also called 叶酸受体α单链抗体; FRα单链抗体; not shown: C-terminal His tag from the pET22b vector (fused downstream of the gene)
Kd: 41.3 nM | koff: 0.00127 s⁻¹ | kon: 30900 M⁻¹ s⁻¹
